Measured values: US20220204643A1 (published 2022)

Experiments:
[1] = biological target: T1, DIX domain containing 1, transcript variant 2 (human, UniProt Q155Q3 220-683)
T1 construct: also called DIXDC1
T1 sequence: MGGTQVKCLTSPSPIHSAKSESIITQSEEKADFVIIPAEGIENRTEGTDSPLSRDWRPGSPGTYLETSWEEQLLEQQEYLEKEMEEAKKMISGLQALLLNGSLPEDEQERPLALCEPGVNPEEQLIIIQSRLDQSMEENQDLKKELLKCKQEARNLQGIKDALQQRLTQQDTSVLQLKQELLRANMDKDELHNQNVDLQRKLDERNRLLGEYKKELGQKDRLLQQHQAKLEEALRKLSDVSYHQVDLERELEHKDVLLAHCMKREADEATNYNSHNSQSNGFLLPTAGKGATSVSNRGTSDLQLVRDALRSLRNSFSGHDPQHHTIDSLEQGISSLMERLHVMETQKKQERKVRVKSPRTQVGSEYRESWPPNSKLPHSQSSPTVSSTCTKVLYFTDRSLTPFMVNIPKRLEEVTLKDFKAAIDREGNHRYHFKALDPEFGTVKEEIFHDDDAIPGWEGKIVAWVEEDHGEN

[2] = biological target: T2, methyltransferase like 21C (human, UniProt Q5VZV1 1-264); assay: protein array
T2 construct: on protein array; also called METTL21C
T2 sequence (Q5VZV1 whole entry): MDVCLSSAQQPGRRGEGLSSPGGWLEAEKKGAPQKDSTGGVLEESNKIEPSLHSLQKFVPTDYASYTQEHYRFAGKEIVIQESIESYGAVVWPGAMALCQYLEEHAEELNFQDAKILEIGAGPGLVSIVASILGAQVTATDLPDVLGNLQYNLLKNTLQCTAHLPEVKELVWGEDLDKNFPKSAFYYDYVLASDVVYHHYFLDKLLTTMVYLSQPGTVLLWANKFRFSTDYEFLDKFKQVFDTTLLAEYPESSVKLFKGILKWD

[3] = biological target: T3, Killer cell lectin like receptor g2 (human, UniProt A4D1S0 1-409); assay: protein array
T3 construct: on protein array; also called KLRG2
T3 sequence: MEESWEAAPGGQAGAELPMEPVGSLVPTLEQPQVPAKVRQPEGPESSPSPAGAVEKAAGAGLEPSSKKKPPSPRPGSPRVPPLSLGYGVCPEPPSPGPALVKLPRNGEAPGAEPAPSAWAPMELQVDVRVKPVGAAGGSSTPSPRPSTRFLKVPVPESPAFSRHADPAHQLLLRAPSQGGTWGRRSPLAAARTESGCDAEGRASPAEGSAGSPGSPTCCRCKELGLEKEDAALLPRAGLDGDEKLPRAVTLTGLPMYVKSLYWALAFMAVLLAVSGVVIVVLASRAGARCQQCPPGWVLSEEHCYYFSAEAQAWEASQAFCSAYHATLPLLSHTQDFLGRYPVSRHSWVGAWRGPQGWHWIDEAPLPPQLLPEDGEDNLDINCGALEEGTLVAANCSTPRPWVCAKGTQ

[4] = biological target: T4, tripartite motif containing 35, transcript variant 1 (human, UniProt Q9UPQ4 1-493, limits assumed); assay: protein array
T4 construct: on protein array; also called TRIM35
T4 sequence: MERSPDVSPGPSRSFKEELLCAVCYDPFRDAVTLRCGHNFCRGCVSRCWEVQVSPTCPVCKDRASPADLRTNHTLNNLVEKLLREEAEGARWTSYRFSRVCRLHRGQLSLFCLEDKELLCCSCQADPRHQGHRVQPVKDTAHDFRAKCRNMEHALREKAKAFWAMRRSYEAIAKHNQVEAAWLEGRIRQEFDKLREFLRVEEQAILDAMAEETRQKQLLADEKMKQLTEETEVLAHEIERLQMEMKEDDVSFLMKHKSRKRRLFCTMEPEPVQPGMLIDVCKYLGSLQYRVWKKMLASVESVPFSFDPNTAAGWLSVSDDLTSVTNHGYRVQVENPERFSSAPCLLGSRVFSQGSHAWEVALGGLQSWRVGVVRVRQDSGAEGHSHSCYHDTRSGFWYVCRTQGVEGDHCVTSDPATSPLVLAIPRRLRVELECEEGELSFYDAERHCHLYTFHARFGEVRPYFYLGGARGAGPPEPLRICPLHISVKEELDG

FMR1 autosomal homolog 2 = biological target: T5, FMR1 autosomal homolog 2 (human, UniProt P51116 1-673); assay: protein array
T5 construct: on protein array; also called FXR2
T5 sequence (P51116 whole entry Q252H): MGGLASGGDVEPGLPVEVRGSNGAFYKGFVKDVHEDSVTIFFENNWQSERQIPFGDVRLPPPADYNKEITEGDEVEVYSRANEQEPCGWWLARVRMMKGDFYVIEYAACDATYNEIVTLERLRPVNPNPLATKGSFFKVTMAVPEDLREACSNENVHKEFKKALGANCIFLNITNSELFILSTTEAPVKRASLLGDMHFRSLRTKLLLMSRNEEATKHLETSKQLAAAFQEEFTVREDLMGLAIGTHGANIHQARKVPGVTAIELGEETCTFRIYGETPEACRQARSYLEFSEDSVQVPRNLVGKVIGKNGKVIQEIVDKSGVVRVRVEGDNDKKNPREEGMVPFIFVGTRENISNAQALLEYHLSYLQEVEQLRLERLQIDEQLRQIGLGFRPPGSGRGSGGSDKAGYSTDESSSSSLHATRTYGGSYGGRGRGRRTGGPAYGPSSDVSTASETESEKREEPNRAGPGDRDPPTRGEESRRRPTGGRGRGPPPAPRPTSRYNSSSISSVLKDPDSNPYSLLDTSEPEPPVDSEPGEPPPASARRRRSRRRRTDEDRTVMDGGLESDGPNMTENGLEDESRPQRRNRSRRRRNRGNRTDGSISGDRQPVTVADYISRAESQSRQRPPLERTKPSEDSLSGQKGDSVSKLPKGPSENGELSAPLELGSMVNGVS

[5] = biological target: T6, family with sequence similarity 177 member A1, transcript variant 2 (human, UniProt Q8N128 1-213); assay: protein array
T6 construct: on protein array; also called FAM177A1
T6 sequence: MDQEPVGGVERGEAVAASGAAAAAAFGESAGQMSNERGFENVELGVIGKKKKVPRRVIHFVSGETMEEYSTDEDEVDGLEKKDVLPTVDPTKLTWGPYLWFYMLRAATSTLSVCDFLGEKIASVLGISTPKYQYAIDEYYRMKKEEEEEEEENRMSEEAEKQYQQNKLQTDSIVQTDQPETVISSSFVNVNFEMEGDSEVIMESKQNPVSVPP

[6] = biological target: T7, RAN binding protein 10, transcript variant 1 (human, UniProt Q6VN20 2-620); assay: protein array
T7 construct: on protein array; also called RANBP10
T7 sequence (Q6VN20 2-620 limits assumed, change not shown): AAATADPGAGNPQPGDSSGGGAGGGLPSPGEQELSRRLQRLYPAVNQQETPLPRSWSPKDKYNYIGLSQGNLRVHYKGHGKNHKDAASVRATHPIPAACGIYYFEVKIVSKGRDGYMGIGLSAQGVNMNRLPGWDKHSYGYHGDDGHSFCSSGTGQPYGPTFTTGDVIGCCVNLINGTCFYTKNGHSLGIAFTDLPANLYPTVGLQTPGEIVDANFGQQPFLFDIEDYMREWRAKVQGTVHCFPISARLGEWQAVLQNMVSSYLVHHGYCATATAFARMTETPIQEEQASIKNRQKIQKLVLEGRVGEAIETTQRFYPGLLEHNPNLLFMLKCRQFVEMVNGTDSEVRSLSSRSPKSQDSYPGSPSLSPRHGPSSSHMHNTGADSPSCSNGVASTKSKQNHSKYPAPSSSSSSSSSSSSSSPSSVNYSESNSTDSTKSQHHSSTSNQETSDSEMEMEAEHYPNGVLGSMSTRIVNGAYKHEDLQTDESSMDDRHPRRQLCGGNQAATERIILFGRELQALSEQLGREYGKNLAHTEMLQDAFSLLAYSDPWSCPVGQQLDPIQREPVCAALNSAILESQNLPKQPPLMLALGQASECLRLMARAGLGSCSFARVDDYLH

annexin A1 = biological target: T8, annexin A1 (human, UniProt P04083 2-346); assay: protein array, with experimental replicate
T8 construct: on protein array; also called ANXA1
T8 sequence: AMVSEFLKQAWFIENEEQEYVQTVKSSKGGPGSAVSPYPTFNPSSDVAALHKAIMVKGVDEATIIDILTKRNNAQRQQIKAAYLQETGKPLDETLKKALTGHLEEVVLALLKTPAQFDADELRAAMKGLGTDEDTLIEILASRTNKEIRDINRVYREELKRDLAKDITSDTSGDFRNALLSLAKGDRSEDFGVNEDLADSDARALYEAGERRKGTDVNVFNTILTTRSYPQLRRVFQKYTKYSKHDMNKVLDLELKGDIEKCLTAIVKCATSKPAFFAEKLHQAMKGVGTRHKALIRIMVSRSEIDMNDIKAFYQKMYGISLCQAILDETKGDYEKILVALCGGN

[7] = biological target: T9, olfactory receptor family 6 subfamily Q member 1 (gene/pseudogene) (human, UniProt Q8NGQ2 1-317); assay: protein array
T9 construct: on protein array; also called OR6Q1
T9 sequence: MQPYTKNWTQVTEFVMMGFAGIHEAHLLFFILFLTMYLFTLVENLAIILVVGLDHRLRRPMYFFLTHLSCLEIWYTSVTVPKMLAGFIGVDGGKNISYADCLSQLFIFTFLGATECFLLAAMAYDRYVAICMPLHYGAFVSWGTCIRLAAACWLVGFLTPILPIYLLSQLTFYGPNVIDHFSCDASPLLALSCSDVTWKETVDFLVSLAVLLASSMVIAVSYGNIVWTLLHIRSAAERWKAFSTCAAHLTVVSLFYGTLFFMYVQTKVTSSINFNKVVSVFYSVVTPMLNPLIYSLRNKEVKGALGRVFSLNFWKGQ

[8] = biological target: T10, hydroxymethylbilane synthase, transcript variant X3 (human, UniProt P08397 18-361); assay: protein array
T10 construct: on protein array; also called HMBS; IAMBS
T10 sequence: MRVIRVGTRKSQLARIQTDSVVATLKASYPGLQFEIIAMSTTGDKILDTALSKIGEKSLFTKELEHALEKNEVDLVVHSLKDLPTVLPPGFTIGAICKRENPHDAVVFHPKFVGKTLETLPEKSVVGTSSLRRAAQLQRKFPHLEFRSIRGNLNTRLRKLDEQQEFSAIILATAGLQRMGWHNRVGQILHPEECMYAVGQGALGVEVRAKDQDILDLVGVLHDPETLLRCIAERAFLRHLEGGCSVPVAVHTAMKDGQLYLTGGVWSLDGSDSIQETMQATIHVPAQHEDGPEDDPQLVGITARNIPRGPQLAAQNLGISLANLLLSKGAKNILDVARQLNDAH

[9] = biological target: T11, hook microtubule tethering protein 2, transcript variant 2 (human, UniProt Q96ED9 1-719); assay: protein array
T11 construct: on protein array; also called HOOK2
T11 sequence: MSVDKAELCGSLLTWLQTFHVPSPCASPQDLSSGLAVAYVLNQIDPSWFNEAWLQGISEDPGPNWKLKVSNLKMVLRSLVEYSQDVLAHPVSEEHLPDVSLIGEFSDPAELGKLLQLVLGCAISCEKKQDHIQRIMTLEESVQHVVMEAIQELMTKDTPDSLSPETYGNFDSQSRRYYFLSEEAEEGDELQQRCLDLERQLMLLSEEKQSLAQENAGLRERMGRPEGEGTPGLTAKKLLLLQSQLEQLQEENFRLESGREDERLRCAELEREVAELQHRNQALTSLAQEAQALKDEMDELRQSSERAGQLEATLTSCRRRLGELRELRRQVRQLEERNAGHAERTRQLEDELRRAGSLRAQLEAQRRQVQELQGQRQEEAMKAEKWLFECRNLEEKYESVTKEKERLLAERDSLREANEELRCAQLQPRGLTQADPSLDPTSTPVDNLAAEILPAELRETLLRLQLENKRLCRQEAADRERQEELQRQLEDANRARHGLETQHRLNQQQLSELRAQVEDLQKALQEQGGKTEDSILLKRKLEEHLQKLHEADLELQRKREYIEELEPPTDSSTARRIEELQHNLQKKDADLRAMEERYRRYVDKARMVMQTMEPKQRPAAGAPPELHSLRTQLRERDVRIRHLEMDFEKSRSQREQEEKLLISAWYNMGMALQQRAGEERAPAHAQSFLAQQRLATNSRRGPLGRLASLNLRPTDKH

B1: TTES1010 (antibody, V domains shown)
VH: EVQLVESGGGLVQPGGSLRLSCAASGFTFSSYSMNWVRQAPGKGLEWVSYISSSSSTIYYADSVKGRFTISRDNAKNSLYLQMNSLRAEDTAVYYCASLLGGDPDYWGQGTLVTVSS
VL: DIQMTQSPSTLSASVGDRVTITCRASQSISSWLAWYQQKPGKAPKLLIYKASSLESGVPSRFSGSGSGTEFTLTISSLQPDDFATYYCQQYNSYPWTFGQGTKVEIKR
binding result [1]: binds

B2: TLUS1003 (antibody, V domains shown)
VH: QVHLVQSGSEFKKPGASVKISCKTSGYTFTNYAMNWVRQAPGQGLEWVGWINTVTGIPGYAQGFTGRFIISLDTSGRTSYLQINSLQAEDTAVYYCARSGGFGWSRDLDYWGQGTLVTVSS
VL: DIVLTQSPLSLPVTPGEPASISCRSSQSLLHSNGVYYLDWYLLKPGQSPQLVIYMGSSRASGVPDRFSGSGSGTDFRLKISRVEAEDVGIYYCMQALQTPWTFGQGTKVEIKR
notes: VH/VL tied via antigen in summary, not by name in this stretch
binding result [2]: binds

B3: TLUA1001 (antibody, V domains shown)
VH: PLQLQESGPGLVKPSETLSLTCSVSGGSIRSSAPFWGWIRQPPGKGLEWIGNIYYNGDTSYSPSLENRVTLFVDTSKNQFSLNLTSVTAADTAVYYCGRIMTPSIDLWGQGKLVTVSS
VL: EIVLTQSPGTLSLSPGERATLSCRASQSISSTYLVWYQQKPGQAPRLLIYAASYRATGIPDRFSGSGSGTDFILTISRLEPEDFAVYYCQQYGSSLTFGGGTKVEIKR
notes: as for B2
binding result [3]: binds | binding result [4]: binds | binding result (FMR1 autosomal homolog 2): binds

B4: TLUA1016 (antibody, V domains shown)
VH: EVQLLESGGALVQPGGSLRLSCAVSGLTFNRFAMTWVRQAPGKGLEWVSHIGGSGGYTYYADSVKGRFTISRDNSKNTLYLQMNSLRAEDTAVYHCVKLKGIGAMWTYAMDVWGQGTTVTVSS
VL: QSVLTQPPSVSGAPGQRVTIPCTGSSSNLGAGYAVHWYQQLPATTPKLLIYANSSRPSGVPDRFSGSRSDTSASLAITGLQAEDEADYYCQSYDSSLSGYVFGTGTWVTVLS
notes: as for B2
binding result [5]: binds

B5: TMEL1017 (antibody, V domains shown)
VH: EVQLVESGGGLVKPGGSLRLSCAASGFTFSNYNMNWVRQAPGKGLEWVSSISSSSSYIYYADSVKGRFTISRDNAKNSLYLQMNSLRAEDTAVYYCARDALDFDWLLSAGGFDYWGQGTLVTVSS
VL: ASALTQPASVSGSPGQSITISCTGTSSDVGGYNYVSWYQQHPGKAPKLMIYEVSNRPSGVSNRFSGSKSGNTASLTISGLQAEDEADYYCSSYTSSSTLVFGGGTKLTVLG
notes: as for B2
binding result [6]: binds

B6: TLUA1004 (antibody, V domains shown)
VH: EVQLVESGGGLVQTGGSLRLSCSASGFTFNNYWMHWVRQAPGKGLLWLSRINTDGSRGHYDDSVQGRFTISRDNAKQTVYLQMDGLRAEDTAVYFCARDGYDFRAFDHWGQGVLVTVSS
VL: DIQMTQSPSSLSASVGDKVTMTCRASQFISVYVNWYQQKPGKAPKLLIYTASSLESGVSSRFSGGGSGTDFTLTIRSLQPEDFAIYYCQQTYSTPWTFGPGTRVEIKR
notes: as for B2
binding result (annexin A1): binds

B7: TBLA1010 (antibody, V domains shown)
VH: EVQLVESGGGLVQPGRSLRLSCAASGFPFGDYAMHWVRQAPGKGLEWVSGIGWDSGGIGYADSVKGRFTISRDIAKNSLYLEINSLRPDDTALYYCAKAAATLPYFRFAMDVWGQGTPVTVSS
VL: EIVLTQSPGTLSLSPGERATLSCRASQSVSSSYLAWYQQKPGQAPRLLIFGASTRASGIPDRFSGRGSGTEFTLTISRLEPEDFAVYYCQQYDSSPFTFGPGTKVEIKR
notes: VH/VL only
binding result [7]: binds

B8: TTES1001 (antibody, V domains shown)
VH: PVQLVQSGAEVKKPGSSVQVSCKGSGGTFSEYGISWLRQAPGQGLEWIGGIIPVLGIPNYAQKFRGRVTITADESTGSAYMEVSSLRSEDTAVYYCAREGLRLARGWFHPWGQGTLVTVTS
VL: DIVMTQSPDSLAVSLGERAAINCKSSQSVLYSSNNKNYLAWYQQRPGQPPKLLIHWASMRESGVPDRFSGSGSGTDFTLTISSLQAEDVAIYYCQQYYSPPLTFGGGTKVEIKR
binding result [1]: binds

B9: TLUS1006 (antibody, V domains shown)
VH: PVHLVQSGAEVRKPGSSVKVSCMASGGSFNTYAVNWVRQAPGQGLEWMGGIIPVFGTTNYAPRFQGRVTITADESTSTVYMELTSLTSEDTAVYYCARDRDSGYERNCLDPWGQGTLVTVSS
VL: DIVMTQSPDSLAVTLGERATINCRSSQTVLYDSNNKNYLAWYQQKPGQPPKLLIYWASIRESGVPDRFSGSGSGTDFTLTINTLQAEDVAIYFCQQYFTTPRTFGQGTKVEIKR
notes: as for B2
binding result [8]: binds | binding result [9]: binds
